The source of these data is PMC3717276, “Optimization and validation of mitochondria-based functional assay as a useful tool to identify BH3-like molecules selectively targeting anti-apoptotic Bcl-2 proteins” (BMC Biotechnology, 2013).

First the molecules themselves.
B4: Human Mcl-1 protein, residues 171-327, N-terminal 8xHis tag (domain or fragment, UniProt Q07820-1 171-327, looked up)
chain: EDELYRQSLEIISRYLREQATGAKDTKPMGRSGATSRKALETLRRVGDGVQRNHETAFQGMLRKLDIKNEDDVKSLSRVMIHVFSDGVTNWGRIVTLISFGAFVAKHLKTINQESCIEPLAESITDVLVRTKRDWLVKQRGWDGFVEFFHVEDLEGG
notes: human Mcl-1 fragment (NM_021960), residues 171-327; Cloned into the pHis-TEV vector; source: E. coli BL21(DE3), purified (Ni-NTA, Source Q15)

Common to all, as to conditions: both partners purified
Test [1] has as its target B4. Description: SPR; competitive solution binding: protein (20 nM) pre-incubated with tested BH3 peptide for at least 30 min, injected over immobilised biotin-Bim BH3 peptide; response at 30 s of dissociation. In general terms: Surface plasmon resonance follows binding to a sensor surface in real time, without labels.
Test [2] concerns the target B4. As to the kind of experiment: fluorescence polarisation; competition: Mcl-1 (20 nM) or Bcl-2 (40 nM) pre-incubated with FAM-Bid (2 nM and 2.5 nM), tested BH3 peptide added, 2-3 h; 100 mM potassium phosphate, pH 7.5, 100 ug/ml bovine gamma globulin, 0.02% sodium azide; Ki calculated from IC50.
In test [3] the target is B4. Description: fluorescence polarisation; saturation experiments with FAM-Bid and Mcl-1 or Bcl-2 protein; assay buffer 100 mM potassium phosphate, pH 7.5, 100 ug/ml bovine gamma globulin, 0.02% sodium azide.
In test [4] the target is T1, Human Bcl-xL protein with internal deletion of 45-85 and C-terminal truncation of 212-233, N-terminal 8xHis … (human, UniProt Q07817-1 1-211, internal deletion of 45–85).
T1 construct: human Bcl-xL (NM_138578), internal deletion of residues 45-85 and C-terminal truncation of 212-233; Cloned into the pHis-TEV vector (a modified pET vector); source: E. coli BL21(DE3), purified (Ni-NTA, Superdex75)
As to the kind of experiment: fluorescence polarisation; competition: 30 nM Bcl-xL and 2.5 nM FAM-Bak, tested BH3 peptide added; 50 mM Tris-Bis, pH 7.4, 0.01% bovine gamma globulin; Ki calculated from IC50.

In test [5] the target is T1, Human Bcl-xL protein with internal …. Description: SPR; competitive solution binding: protein (20 nM) pre-incubated with tested BH3 peptide for at least 30 min, injected over immobilised biotin-Bim BH3 peptide; response at 30 s of dissociation.
The target of test [6] is T2, Biotin-labeled Bim BH3 peptide (residues 81-106) (biotin label, position not stated).
T2 construct: Bim BH3 peptide, residues 81-106 of Swiss-Prot O43521; also called immobilized Bim BH3 peptide; Bim peptide
As to the kind of experiment: SPR; biotin-labeled Bim BH3 peptide immobilised on a streptavidin SA chip; proteins injected at different concentrations in HBS-EP (10 mM HEPES pH 7.4, 150 mM NaCl, 3 mM EDTA, 0.005% P20).

Ends that are not written are not given here. * marks the point of attachment. 6FAM = O=C1OC2(c3ccc(O)cc3Oc3cc(O)ccc32)c2cc(C(=O)*)ccc21

T1 sequence (Q07817 other isoform, or with tags, fused parts or gaps internal deletion of 45–85 | internal deletion of 45–85): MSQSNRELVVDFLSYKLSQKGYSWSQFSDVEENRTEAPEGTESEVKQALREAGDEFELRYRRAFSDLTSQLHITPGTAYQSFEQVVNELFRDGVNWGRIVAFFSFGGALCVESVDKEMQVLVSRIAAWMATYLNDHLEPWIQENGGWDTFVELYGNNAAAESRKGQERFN
T2 sequence (peptide, as listed by the source): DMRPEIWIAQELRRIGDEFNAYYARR

B1: Bid BH3 peptide (residues 79-99) (peptide)
peptide: QEDIIRNIARHLAQVGDSMDR
notes: Bid BH3 peptide, residues 79-99 of Swiss-Prot P55957; also called unlabeled Bid BH3 peptide; source: provided by Dr. Peter P Roller (National Cancer Institute)
On to B1, for which, in test [1], the IC50 (as a rule, the concentration at which inhibition is half-maximal) was found to be 0.0601 µM. In addition, the Ki – broadly, the dissociation constant of the complex between target and ligand, obtained from inhibition or displacement – in test [2] was 0.006 µM.

B2: 21-residue Bid BH3 peptide labeled at the N-terminus with 6-carboxyfluorescein succinimidyl ester (FAM-Bid) (peptide)
peptide: 6FAM-QEDIIRNIARHLAQVGDSMDR
notes: Bid BH3 peptide, residues 79-99 of Swiss-Prot P55957; also called Flu-Bid; source: synthetic peptide
As to B2, in test [3], the dissociation constant (Kd) (commonly the constant that tells how readily two partners part at equilibrium) stood at 0.0028 µM.

B3: Noxa BH3 peptide (residues 18-43) (peptide)
peptide: PAELEVECATQLRRFGDKLNFRQKLL
notes: Noxa BH3 peptide, residues 18-43 of Swiss-Prot Q13794; source: provided by Dr. Peter P Roller (National Cancer Institute)
As for B3, the figures for the Ki in test [4] and in test [2] were above 10 µM and 0.097 µM, respectively. Further, the IC50 in test [5] was above 30 µM; in test [1] it was 0.051 µM.

B4 had a Kd in test [6] of 0.0002 µM.

B5: Bad BH3 peptide (residues 103-128) (peptide)
peptide: NLWAAQRYGRELRRMSDEFVDSFKKG
notes: Bad BH3 peptide, residues 103-128 of GenBank CAG46757; source: provided by Dr. Peter P Roller (National Cancer Institute)
Consider B5, for which the values for the inhibitory constant (Ki) in test [4] and in test [2] were 0.0032 µM and above 20 µM, respectively. Also, the figures for the IC50 in test [5] and in test [1] were 0.00864 µM and above 30 µM, respectively.
